Data taken from article PMC3880548 (Biochemistry, 2012).

B1: Shewanella oneidensis cytochrome c peroxidase, wild type (enzyme)
chain: AEPIEVITPAKITEPEKVELGKMLFFEPRLSKSGFISCNSCHNLSTGGVDALPTSIGHHWQEGPINSPTVLNADFMLAQFWDGRASNLKEQAAGPIANPKEMGFTHELATETIASMPAYRARFAKVYGDEKVDIDRLTDAIAAFEKTLVTPNSPFDQYLLGKQDAISGDAKAGYQLFKDKGCVSCHNGPAVGGTMFMKMGLIKPFHTNNPAEGRKGVTGKDADKFVFKVPTLRNIELTYPYFHDGSVWTLEEAVNTMADIQLGQKLTEKETKEMVAFLNSLTGEQPQISLPILPPSNKETPRPVPFATGAK
B2: Shewanella oneidensis cytochrome c peroxidase E321K charge reversal mutant (enzyme)
chain: AEPIEVITPAKITEPEKVELGKMLFFEPRLSKSGFISCNSCHNLSTGGVDALPTSIGHHWQEGPINSPTVLNADFMLAQFWDGRASNLKEQAAGPIANPKEMGFTHELATETIASMPAYRARFAKVYGDEKVDIDRLTDAIAAFEKTLVTPNSPFDQYLLGKQDAISGDAKAGYQLFKDKGCVSCHNGPAVGGTMFMKMGLIKPFHTNNPAEGRKGVTGKDADKFVFKVPTLRNIELTYPYFHDGSVWTLEEAVNTMADIQLGQKLTEKETKEMVAFLNSLTGEQPQISLPILPPSNKKTPRPVPFATGAK

Target: the molecule itself
Experiment: SEC

| Protein | stoichiometry N |
| --- | --- |
| B1 | 2 |
| B2 | 2 |
